From the DeepSol protein solubility set

test: soluble on expression in E. coli; label from the status in PepcDB or PDB records

Sequence	soluble on expression in E. coli
MKEFYLTVEQIGDSIFERYIDSNGRERTREVEYKPSLFAHCPESQATKYFDIYGKPCTRKLFANMRDASQWIKRMEDIGLEALGMDDFKLAYLSDTYNYEIKYDHTKIRVANFDIEVTSPDGFPEPSQAKHPIDAITHYDSIDDRFYVFDLLNSPYGNVEEWSIEIAAKLQEQGGDEVPSEIIDKIIYMPFDNEKELLMEYLNFWQQKTPVILTGWNVESFDIPYVYNRIKNIFGESTAKRLSPHRKTRVKVIENMYGSREIITLFGISVLDYIDLYKKFSFTNQPSYSLDYISEFELNVGKLKYDGPISKLRESNHQRYISYNIIDVYRVLQIDAKRQFINLSLDMGYYAKIQIQSVFSPIKTWDAIIFNSLKEQNKVIPQGRSHPVQPYPGAFVKEPIPNRYKYVMSFDLTSLYPSIIRQVNISPETIAGTFKVAPLHDYINAVAERPSDVYSCSPNGMMYYKDRDGVVPTEITKVFNQRKEHKGYMLAAQRNGEIIKEALHNPNLSVDEPLDVDYRFDFSDEIKEKIKKLSAKSLNEMLFRAQRTEVAGMTAQINRKALINGLAGALGNVWFRYYDLRNATAITTFGQMALQWIERKVNEYLNEVCGTEGEAFVLYGDTDSIYVSADKIIDKVGESKFRDTNHWVDFLDKFARERMEPAIDRGFREMCEYMNNKQHLMFMDREAIAGPPLGSKGIGGFWTGKKRYALNVWDMEGTRYAEPKLKIMGLETQKSSTPKAVQKALKECIRRMLQEGEESLQEYFKEFEKEFRQLNYISIASVSSANNIAKYDVGGFPGPKCPFHIRGILTYNRAIKGNIDAPQVVEGEKVYVLPLREGNPFGDKCIAWPSGTEITDLIKDDVLHWMDYTVLLEKTFIKPLEGFTSAAKLDYEKKASLFDMFDFHHHHHH	soluble
MSSKGSVVLAYSGGLDTSCILVWLKEQGYDVIAYLANIGQKEDFEEARKKALKLGAKKVFIEDVSREFVEEFIWPAIQSSALYEDRYLLGTSLARPCIARKQVEIAQREGAKYVSHGATGKGNDQVRFELSCYSLAPQIKVIAPWRMPEFYNRFKGRNDLMEYAKQHGIPIPVTPKNPWSMDENLMHISYEAGILENPKNQAPPGLYTKTQDPAKAPNTPDILEIEFKKGVPVKVTNVKDGTTHQTSLELFMYLNEVAGKHGVGRIDIVENRFIGMKSRGIYETPAGTILYHAHLDIEAFTMDREVRKIKQGLGLKFAELVYTGFWHSPECEFVRHCIAKSQERVEGKVQVSVLKGQVYILGRESPLSLYNEELVSMNVQGDYEPTDATGFININSLRLKEYHRLQSKVTAK	not soluble
MAGDPMTEQDIYKLLADGERVTLECKKAQNGVPNSLWETYSAFANTNGGILLLGVYENVAEKDSLMRFTITGVEDADKIRKDLWNTINSREKVNVNLLHDEDVQTISVNGKEVIAINVPRADYNLRPVYINNNLMRGTYRRNHEGDYHCTEQMIKMMVRDAYEDGNDRMFLEYYTMDDIDIPTLEGYRVMFKTNNPEHIWNSLDHKEFLMQLGGYVVNRKDGTEGLTIAGLLMFGKGLPVRERFDYLRMDYIDKSNLIGDQRYSDRLTYDGTWENNLFNFIRMVVPRLTRDIPRPFQMDGIIRKDDTPQHKAVREAFTNMIIHADLMLNGLLRVEKYDDRFVLSNPGLLKLPVEQIYAGGESKARNQRMQHMLRMIGYGENLGSGFPLILSAWNEKHWLKPELVEQPELMQVKLILHIENRVYVTKDVTKDVTKELTERQQIILEFMQADGTITISEMSQKTNVTERTIKRDIESLTEKGILSREGGRKEGRWVIRKILEHHHHHH	soluble
MPLSPYLSFAGNCADAIAYYQQTLGAELLYKLSFGEMPPSAADNEEGCPSGMRFPDTAIAHANMRIAGSDIMMSDASASGRAHYSGFTLVLDTQDVAEGKRWFDNLAAQGQIEMDWQETFWAQGFGKVSDRFGVPWMINVVKHQPAT	not soluble
MSEKTNPNLTLHDVTDKLEGDDEKYATALKTCGEVFAEVEAIFNDENYLSHAGWFKDESNNEGDVVYAKDTPHGRMVTISTELPMPVEDVMKETWNGMEALPEWNQNINFAARIAAPTSNFDIVTYGNNDVLVVSGREFVSARIWRKVGDGFILASRSVTVPSFKSKHKGKVRAHLHLAGARFRPNPENPETTLTDVVMLADLKGYLPKMIVNQVIGRIMIMDTVTNRRHFQNLKAKRTNN	not soluble
MSLLQRDLVNTTGFLRMIMEHNYEKFASVYDAVMDDSLYDLWTDFSLRHLPKSKGRNRLLELACGTGIQSVRFAQAGFDVTGLDLSQDMLAIAKKRAQSAKKKIDFIQGNMLDLSQVGQFDFVTCYSDSICYMQDEVDVGDVFKEVYDVLANDGIFIFDVHSTYQTDECFPGYSYHENADDFAMVWDTYADEAPHSVVHELTFFIQEDDGRFSRFDEVHEERTYELLTYDILLEQAGFKSFKVYADFEDKEPTKTSKRWFFVAYKEGHHHHHH	soluble
LHLELEEKLAGIAAWEPTAPRLLNPGVSSGKALVASGVAAAHAREVLEDLGLRDVIPLWQVVQPYPLHTAFVERLLADYDEILVLEETTGVMELQLADRHRVKGKRSGFVPEVGELSPELVERLVAAFAGIPAAPSVAPPTGGGRRPTLCPGCPHRASFHAIKRAAPKGIYPSDIGCYTLGLNLGGVDTVLCMGAAVSQAAGFYHAYKLSGQVPDIVATIGDSTFFHAGIPPLIDAVVQDARFVLVILDNATTAMTGNQPTPALGWGAGGVPTATVDMEGLVKACGV	not soluble
MPFFANSDPMMSKLSQIQFADAPTLKGDKYPDVDAHRIIAPIISPIMEVFDQMKENQRARDQAEKIRKDREDHPLSTSRSLWEMFQRLQRPTTTTTEAPPLIERLFKPYIEPWQKQLDDFSKDMAGITLIPTTTTTPAPTTTTTPNFLEKSLSMFFPSLRRKPQSIPTLPPTTTPTPRLFDPEMFDRLFFKRDKRQATIAPAPKFDIFTVPPPPPLFQEWEKPILSLSNPFTLNPLMKMFTTPSPPQTLAPLPKIPEPNPYEIKKGLPEPQFKLQDPFYNPLFPSRKSKMFDFLAGGEAGRLLG	not soluble
MQEPQARIAALLRDADDILITTHANPDGDAIGSLGAMGHVLATLGKRFCLCNVSGVPSHLSWVPLPGQVYTSFDELPFQPRLAIVLDCGDEKRPGEALRAPLADLPSINIDHHQGNPLFGTVDNWVEPQRAATGEMVAEIALALGQPLAGALGECLYLALVSDTGSFSFGNTSARVLSLAAEIVGNGLDVAALTERHDNQWSFARMQLWGRLMQEMRLAFDGTVAISVIPDALIESCGARRADLEGWASQMRKVRGVRVSVMVRGNGPEGSKVSLRSTGSDDVRAVAARFGGGGHRNAAGVEMPLPPEEASRQVVAALGEQLGLDGDGASLYVLEHHHHHH	soluble
MGSDKIHHHHHHMRTLKVLHLASFDGNIGDNANHNGVRFLWKKYLPEYDFAITPLEMREYFWKWKSFDDGFADMVNEYDLFVCGGGNYFELWVQSSPTGTSVAIPLEVLRKIKTPCLFYALGLDPYMGAPDICIERFKRFLDYTLASPQFLVSVRNDGSLDSARRVLGGEYADRIHLMPDGGHFVQPEACTHYELTPGARTIGVNLAGDMLDFRFKSCNGKNLNDFKRSTAAVLCDIMRRMPDVNLIFYPHIHKDYSFLADFICGIDDHLLRRRITVAPYLHGQGAERKFFDLYRQCALNIGTRLHANICSVGLKTPSIGIVTHEQIHELYGYYGMAERALRFSDDNYAAKLDDLISDSLENTERISCRYSDVMSMVTKDAERFLGIMNCWLDSVV	not soluble
MVLPKSKNQIGLGRAIQSDFTKNRRNRKGGLKHIVDSDPKAHRAALRSVTHETDLDEFLNTAELGEVEFIAEKQNVTVIQNPEQNPFLLSKEEAARSKQKQEKNKDRLTIPRRPHWDQTTTAVELDRMERESFLNWRRNLAQLQDVEGFIVTPFERNLEIWRQLWRVIERSDVVVQIVDARNPLFFRSAHLEQYVKEVGPSKKNFLLVNKADMLTEEQRNYWSSYFNENNIPFLFFSARMAAEANERGEDLETYESTSSNEIPESLQADENDVHSSRIATLKVLEGIFEKFASTLPDGKTKMTFGLVGYPNVGKSSTINALVGSKKVSVSSTPGKTKHFQTINLSEKVSLLDCPGLVFPSFATTQADLVLDGVLPIDQLREYTGPSALMAERIPKEVLETLYTIRIRIKPIEEGGTGVPSAQEVLFPFARSRGFMRAHHGTPDDSRAARILLKDYVNGKLLYVHPPPNYPNSGSEFNKEHHQKIVSATSDSITEKLQRTAISDNTLSAESQLVDDEYFQENPHVRPMVKGTAVAMQGPVYKGRNTMQPFQRRLNDDASPKYPMNAQGKPLSRRKARQLTALELGVSPEALSSATSKKHNKKNKRSKQRSGVVIDDY	soluble
YLLGHSLGELTCLSVNSLFSLKDLFDIANFRNKLMVTSTEKYLVAHNINRSNKFEMWALSSPRATDLPQEVQKLLNSPNLLSSSQNTISVANANSVKQCVVTGLVDDLESLRTELNLRFPRLRITELTNPYNIPFHNSTVLRPVQEPLYDYIWDILKKNGTHTLMELNHPIIANLDGNISYYIHHALDRFVKCSSRTVQFTMCYDTINSGTPVEIDKSICFGPGNVIYNLIRRNCPQVDTIEYTS	soluble
MSLAELTALYTLTAQMKREGICRLLVLSGEEGWCFDHALKLRDALPGDWLWISPQLDAENHCSPSALQTLLGREFRHAVFDARHGFDAAAFAALSGTLKAGSWLVLLLPVWEEWENQPDADSLRWSDCPDPIATPHFVQHLKRVLTADNDAILWRQNQPFSLAHFTPRTDWHPATGAPQPEQQQLLQQLLTMPPGVAAVTAARGRGKSALAGQLISRIAGSAIVTAPAKAATDVLAQFAGEKFRFIAPDALLASDEQADWLVVDEAAAIPAPLLHQLVSRFPRTLLTTTVQGYEGTGRGFLLKFCARFPHLHRFELQQPIRWAQGCPLEKMVSEALVFNDENFTHTPQGNIVISAFEQTLWRSEPETPLKVYQLLSGAHYRTSPLDLRRMMDAPGQHFLQAAGENEIAGALWLVDEGGLSQELSQAVWAGFRRPRGNLVAQSLAAHGSNPLAATLRGRRVSRIAVHPARQREGTGRQLIAGALQYTHDLDYLSVSFGYTGELWRFWQRCGFVLVRMGNHREASSGCYTAMALLPMSDAGKQLAEREHYRLRRDAQALAQWNGEMLPVDPLNDAILSDDDWLELAGFAFAHRPLLTSLGCLLRLLQTSELALPALRGRLQKNASDAQLCTTLKLSGRKMLLVRQREEAAQALFALNEVRTERLRDRITQWQFFHEGHHHHHH	soluble
MGSDKIHHHHHHGDDDDSSSSGNWQDLSKTYEGKSVNLVMGEVTVPVDGKSVVIAASSAEKASVTLNNIIPENKSVAIDAALKEADGTYTFTGESTVGDCVVSVNGTVKGGVASVVYTRKLTSSIVGNWSLKVGVEAIYANIVTGNSTIDDLVRMIKPAISNLIWGKVSAVNVNLPEDGIFDVSWRPIGASEDKGIGEITKMASIQYCVVDGKFMVAVDKNYVTVLTTLLQQAAGDKLEAAGISIDEIMKLLVDLGGYYGLPLNMKVDGSEATFYADKDLIVPVLTMIAPILKPMVPENYQQMVDMVLQLLPNAKTLEFGLNFTK	not soluble
MSLEARVLTGAALEARLDEVARLRIAVFRDWPYLYEGSMDYERSYLSTYRTSPGAILVGAFDGDRLVGASTGTPMEDHAEDFAAAFARTGLPLDEIFYCAESVLLPDYRGHGMGHRFFDLREAHARALGRRHSAFCSVIRPEDHPLRPAAARSNEPFWRKRGYAPLPGVVAHYGWTDVGEERETQKPLQFWIRDL	not soluble
LYIHGFASSGESHKAKALKAGLAPYEVMTPTLSYVPSLAFQTLRQLVDESLAQKEELTLIGASLGGYYATQLSWLYNLKAILINPAITPYETL	not soluble
MTTETQADRTQQAVGRIIGSIGVVTTQTTGRHQGILTSWVSQASFTPPGIMLAIPGEFDAYGLAGQNKAFVLNLLQEGRSVRRHFDHQPLPKDGDNPFSRLEHYSTQNGCLILAEALAYLECLVQSWSNIGDHVLVYATVQAGQVLQPNGITLEHHHHHH	soluble
